Laboratory results: patent US20240390512A1, “METHODS OF TREATING CHEMOTHERAPY-RESISTANT CANCER WITH AN ANTIBODY-DRUG CONJUGATE” (DAIICHI SANKYO COMPANY, LIMITED, priority 2021, published 2024)

T1: human CDH6 (full-length and EC domain deletion mutants) (Homo sapiens, UniProt P55285, DEL269-383)
T1 construct: each one of the five EC domains could be deleted from full-length human CDH6; 3xFLAG (deletion mutants only, from the vector p3×FLAG-CMV-9); expressed in transfected cells; host or cells: 293α cells
T1 sequence (P55285 with tags, fused parts or gaps DEL269-383): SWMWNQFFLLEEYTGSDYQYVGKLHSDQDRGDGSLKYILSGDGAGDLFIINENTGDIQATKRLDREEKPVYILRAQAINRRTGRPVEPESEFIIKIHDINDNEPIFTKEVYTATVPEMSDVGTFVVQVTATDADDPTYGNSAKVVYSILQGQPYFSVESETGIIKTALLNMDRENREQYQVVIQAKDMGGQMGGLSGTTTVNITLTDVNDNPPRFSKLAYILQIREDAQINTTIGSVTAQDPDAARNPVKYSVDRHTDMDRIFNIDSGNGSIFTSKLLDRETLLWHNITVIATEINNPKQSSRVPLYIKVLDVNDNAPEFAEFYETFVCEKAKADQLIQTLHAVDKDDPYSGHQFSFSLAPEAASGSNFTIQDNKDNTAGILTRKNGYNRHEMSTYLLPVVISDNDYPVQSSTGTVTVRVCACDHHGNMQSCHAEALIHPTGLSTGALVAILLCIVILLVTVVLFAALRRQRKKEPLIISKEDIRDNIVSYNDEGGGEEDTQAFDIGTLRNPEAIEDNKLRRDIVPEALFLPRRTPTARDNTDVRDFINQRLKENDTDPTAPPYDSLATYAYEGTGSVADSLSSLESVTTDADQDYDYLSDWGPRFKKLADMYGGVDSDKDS

T2: human CDH6 (full-length and EC domain deletion mutants) (Homo sapiens, UniProt P55285, DEL384-486)
T2 construct: each one of the five EC domains could be deleted from full-length human CDH6; 3xFLAG (deletion mutants only, from the vector p3×FLAG-CMV-9); expressed in transfected cells; host or cells: 293α cells
T2 sequence (P55285 with tags, fused parts or gaps DEL384-486): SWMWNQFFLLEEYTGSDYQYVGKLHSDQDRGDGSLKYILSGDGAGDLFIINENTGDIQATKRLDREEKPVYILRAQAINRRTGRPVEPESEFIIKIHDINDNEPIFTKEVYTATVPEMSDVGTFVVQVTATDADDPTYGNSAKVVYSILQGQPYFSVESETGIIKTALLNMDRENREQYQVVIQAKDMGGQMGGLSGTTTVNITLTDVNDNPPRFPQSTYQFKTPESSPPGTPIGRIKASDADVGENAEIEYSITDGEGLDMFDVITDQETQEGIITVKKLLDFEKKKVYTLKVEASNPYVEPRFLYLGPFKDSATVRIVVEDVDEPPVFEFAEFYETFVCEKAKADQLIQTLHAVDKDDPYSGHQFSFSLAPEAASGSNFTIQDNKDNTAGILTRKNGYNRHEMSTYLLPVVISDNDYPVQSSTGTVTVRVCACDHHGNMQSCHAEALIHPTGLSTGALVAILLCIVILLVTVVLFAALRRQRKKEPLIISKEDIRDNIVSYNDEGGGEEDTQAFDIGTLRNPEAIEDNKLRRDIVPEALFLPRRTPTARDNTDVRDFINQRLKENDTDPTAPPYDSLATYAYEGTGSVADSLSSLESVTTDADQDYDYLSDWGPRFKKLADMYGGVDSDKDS


Assays:
[1] = molecular target: T1, human CDH6 (full-length and EC domain deletion mutants); test: Epitope analysis of rat anti-CDH6 antibody by flow cytometry using domain deletion mutants; assay type: binding; settings: flow cytometry; transfected 293α cells; antibody 20 nM
Description: (§1) The full-length extracellular region of human CDH6 has five extracellular domains, EC1 (SEQ ID NO: 2), EC2 (SEQ ID NO: 3), EC3 (SEQ ID NO: 4), EC4 (SEQ ID NO: 5), and EC5 (SEQ ID NO: 6). A gene to be expressed such that each one of the five EC domains could be deleted from full-length human CDH6 was synthesized by GeneArt, and incorporated into p3×FLAG-CMV-9 vectors for mammalian expression (Sigma-Aldrich Co. LLC) according to a method known to a person skilled in the art in order to produce an expression vector for each domain deletion mutant lacking any one of EC1 to EC5.
(§2) The epitopes to which the rat anti-human CDH6 antibodies bound were identified by flow cytometry analysis using a 293α cell line transfected with each EC domain deletion vector. Using Lipofectamine 2000 (Thermo Fisher Scientific Inc.), each domain deletion mutant expression vector produced in Reference Example 2)-2-1, or pcDNA3.1-hCDH6 for the expression of full-length human CDH6 was transiently introduced into a 293α cell line, which was a cell line derived from HEK293 cells by stable transfection with integrin αv and integrin […] expression vectors. The cells were cultured overnight under conditions of 37° C. and 5% CO2, and thereafter, a cell suspension was prepared. The suspension of the transfected 293α cells was centrifuged, and a supernatant was then removed. Thereafter, the cells were suspended by the addition of each of the 4 rat anti-CDH6 monoclonal antibodies (clone Nos: rG019, rG055, rG056 and rG061), which had been prepared in Reference Example 1)-7, or rat IgG control (R&D Systems, Inc.) (final concentration: 20 nM). The cells were left standing at 4° C. for 1 hour. The cells were washed twice with PBS supplemented with 5% FBS, and then suspended by the addition of Anti-Rat IgG (whole molecule)-FITC antibody produced in rabbit (Sigma-Aldrich Co. LLC) that had been 50-fold diluted with PBS supplemented with 5% FBS. The cells were left standing at 4° C. for 1 hour. The cells were washed twice with PBS supplemented with 5% FBS, followed by detection using a flow cytometer (Canto II; BD Biosciences). The data was analyzed using FlowJo (Tree Star, Inc.). In the histograms of FIGS. 2-1 to 2-6, the abscissa depicts FITC fluorescence intensity indicating the amount of the antibody bound, and the ordinate depicts cell count. […] Fluorescence intensity is enhanced when the antibody binds to full-length hCDH6 or each EC domain deletion mutant on the surface of cells. The rat IgG control binds to none of the transfected cells.

[2] = molecular target: T2, human CDH6 (full-length and EC domain deletion mutants); test: as above; assay type: binding; settings: flow cytometry; transfected 293α cells; antibody 20 nM
Description: as §1, §2

| Molecule | binding to EC3 deletion mutant [1] | binding to EC4 deletion mutant [2] |
| --- | --- | --- |
| rG056: rat anti-human CDH6 monoclonal antibody produced by hybridoma rG056; variable regions SEQ ID NO: 30 and 35 (antibody, listed as Rattus norvegicus, V domains shown) VL: DVQMTQSPSSLAASPGESVSISCRATKSIGIYLAWYQQKPGKTFKLLIYSGSTLQSGTPSRFSGSGSGTDFTLTIRSLEPEDFGLYFCQQFYENPFTFGSGTKLEIRRA VH: EVQLQESGPGLVKPSQSLSLTCSVTDYSITTYFWGWIRKFPGNKMEWMGYMSYRGGTSYNPSLKSRISITRDTSKNQFFLQLNSVTTEDTATYYCARCPNYGGHSLVFDYWGQGVMVTVSS | do not bind | bind |
| rG055: rat anti-human CDH6 monoclonal antibody produced by hybridoma rG055; variable regions SEQ ID NO: 20 and 25 (antibody, listed as Rattus norvegicus, V domains shown) VL: DVQMTHSPSYLAASPGESVSISCKTSKNISNYLVWYQQKPGEAYKLLIYSGSTLQSGTPSRFSGSGSGTDFTLTIRSLEPEDFGLYFCQQYYEKPFTFGSGTKLEIKRA VH: EVQLQESGPGLVRPSQSLSLSCSVTDYSITSNYWGWIRRFPGNKMEWMGYITYSGYTSYNPSLQSRISITRDTSKNQFFLQLNSVTAEDTATYYCARSINHGGYSYVVDAWGPGASVTVSS | do not bind | bind |
| rG061: rat anti-human CDH6 monoclonal antibody produced by hybridoma rG061; variable regions SEQ ID NO: 40 and 45 (antibody, listed as Rattus norvegicus, V domains shown) VL: DVQMTQSPSYLAASPGESVSISCKATKSISNYLAWYQQKPGEAYKVLIYSGSTLQSGTPSRFSGSGSGTDFTLTIRSLEPEDFGLYSCQQYYEKPLTFGSGTKLEIKRA VH: EVQLQESGPGLVKPSQSLSLTCSVTGYSITTYYWGWIRKFPGNKMEWMGYISYSGRTSYNPSLKSRMSITRDASKNQFFLQLNSVTTDDTATYYCARSPINHGGYWYFDFWGPGTMVTVSS | do not bind | bind |
| rG019: rat anti-human CDH6 monoclonal antibody produced by hybridoma rG019; variable regions SEQ ID NO: 10 and 15 (antibody, listed as Rattus norvegicus, V domains shown) VL: DIQMTQSPSLLSASVGDRVTLNCKASQNIYKNLAWYQQKLGEGPKLLIYDANTLQTGIPSRFSGSGSGSDFTLTISSLQPEDVATYFCQQYYSGWAFGGVTNLELKRA VH: QVQLQQSGAELVKPGSSVKISCKASGYTFTRNFMHWIKQQPGNGLEWIGWIYCGDGETEYNQKFNGKATLTADRSSSTAYMELSRLTSEDSAVYFCARGVYGGFAGGYFDFWGQGVMVTVSS | do not bind | bind |
